Experimental data published in US20260053904A1 (BIOATLA, published 2026).

T1: recombinant human EpCAM extracellular domain (human, UniProt P16422 24-265)
T1 construct: extracellular domain; Plate-coated antigen of the ELISAs; also called human EpCAM ECD; recombinant EpCAM antigen
T1 sequence (looked up): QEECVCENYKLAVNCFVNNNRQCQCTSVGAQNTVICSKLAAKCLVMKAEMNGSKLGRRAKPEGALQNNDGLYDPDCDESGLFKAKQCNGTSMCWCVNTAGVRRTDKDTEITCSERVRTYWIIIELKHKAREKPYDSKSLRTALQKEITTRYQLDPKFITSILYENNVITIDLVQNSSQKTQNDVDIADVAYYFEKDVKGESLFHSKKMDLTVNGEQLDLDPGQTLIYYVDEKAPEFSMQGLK

T2: human EpCAM expressed on cells (CHO, Colo205, 293) (human, UniProt P16422 24-314)
T2 construct: whole, on cells; also called CHO cells expressing human EpCAM; Colo205 cells expressing human EpCAM
T2 sequence (looked up): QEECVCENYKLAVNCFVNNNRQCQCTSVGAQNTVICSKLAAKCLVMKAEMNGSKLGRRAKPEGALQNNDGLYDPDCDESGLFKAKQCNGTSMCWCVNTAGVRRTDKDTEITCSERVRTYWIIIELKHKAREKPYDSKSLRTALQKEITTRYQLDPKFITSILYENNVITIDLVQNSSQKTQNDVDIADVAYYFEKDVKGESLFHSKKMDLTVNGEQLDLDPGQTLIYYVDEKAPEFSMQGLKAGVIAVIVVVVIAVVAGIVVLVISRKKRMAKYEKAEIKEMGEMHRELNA


Tests used:
[1] = molecular target: T3, cyno EpCAM (recombinant, ELISA antigen) (cynomolgus monkey); assay: ELISA, cyno EpCAM, pH 6.0
T3 construct: extracellular domain; also called cynomolgus EpCAM extracellular domain
Experimental: (§1) The binding activities of the humanized conditionally active anti-EpCAM antibodies to cyno EpCAM were similarly measured. The EC50 for binding to the cyno EpCAM at pH 6.0 and pH 7.4 for the humanized conditionally active anti-EpCAM antibodies are summarized in Table 7.
(§2) The ELISA assay was performed using the following protocol: [0388] 1) Coat ELISA plates with 100 μL of 0.5 μg/mL (06_20_17 and 06_28_17 Experiments) or 1 μg/mL (07_06_17 and 07_11_17 Experiments) recombinant EpCAM antigen in carbonate-bicarbonate coating buffer [0389] 2) Cover plates with sealing film and incubate overnight at 4° C. [0390] 3) Decant plates and tap out residual liquid on a stack of paper towels [0391] […] 5) Add 200 μL of various pH incubation buffers to the wells according to the sample map.

[2] = molecular target: T3, cyno EpCAM (recombinant, ELISA antigen); assay: ELISA, cyno EpCAM, pH 7.4
Experimental: as §1, §2

[3] = molecular target: T1, recombinant human EpCAM extracellular …; assay: ELISA, human EpCAM, pH 6.0
Experimental: (§3) The binding activities of the humanized conditionally active anti-EpCAM antibodies to human EpCAM were measured by ELISA, using the template antibody BAP-1-5-01-06, as a control. The EC50 values of the humanized conditionally active anti-EpCAM antibodies for binding to human EpCAM at pH 6.0 and pH 7.4 are summarized in Table 5.
as §2

[4] = molecular target: T1, recombinant human EpCAM extracellular …; assay: ELISA, human EpCAM, pH 7.4
Experimental: as §3, §2

[5] = molecular target: T3, cyno EpCAM (recombinant, ELISA antigen); assay: ELISA with pH titration, cyno EpCAM
Experimental: The binding activities of the humanized conditionally active anti-EpCAM antibodies to cyno EpCAM with pH titration was similarly measured by ELISA.
as §2

[6] = molecular target: T1, recombinant human EpCAM extracellular …; assay: ELISA with pH titration, human EpCAM
Experimental: The binding activities of the humanized conditionally active anti-EpCAM antibodies to human EpCAM with pH titration were also measured by ELISA.
as §2

[7] = molecular target: T4, cyno EpCAM expressed on 293 cells (cynomolgus monkey); assay: FACS on 293 cells expressing cyno EpCAM, pH 6.0
T4 construct: whole, on cells; also called 293 cells expressing cyno EpCAM
Experimental: (§4) A similar FACS analysis was also carried out using 293 cells expressing cyno EpCAM. […] The EC50 values for binding to the 293 cells expressing cyno EpCAM by the humanized conditionally active anti-EpCAM antibodies are summarized in Table 11.

[8] = molecular target: T4, cyno EpCAM expressed on 293 cells; assay: FACS on 293 cells expressing cyno EpCAM, pH 7.4
Experimental: as §4

[9] = molecular target: T2, human EpCAM expressed on cells (CHO, …); assay: FACS on 293 cells expressing human EpCAM, pH 6.0
Experimental: (§5) A similar FACS analysis was also carried out using 293 cells expressing human EpCAM. […] The EC50 values for binding to the 293 cells expressing human EpCAM by the humanized conditionally active anti-EpCAM antibodies are summarized in Table 10.

[10] = molecular target: T2, human EpCAM expressed on cells (CHO, …); assay: FACS on 293 cells expressing human EpCAM, pH 7.4
Experimental: as §5

[11] = molecular target: T2, human EpCAM expressed on cells (CHO, …); assay: FACS on Colo205 cells expressing human EpCAM, pH 6.0
Experimental: (§6) Binding activities of the humanized conditionally active anti-EpCAM antibodies to Colo205 cells expressing human EpCAM were measured by FACS at pH 6.0 and pH 7.4. […] The EC50 values for binding to the Colo205 cells expressing human EpCAM by the humanized conditionally active anti-EpCAM antibodies are summarized in Table 9.

[12] = molecular target: T2, human EpCAM expressed on cells (CHO, …); assay: FACS on Colo205 cells expressing human EpCAM, pH 7.4
Experimental: as §6

[13] = molecular target: T2, human EpCAM expressed on cells (CHO, …); assay: cell-based or functional assay
[14] = molecular target: T1, recombinant human EpCAM extracellular …; assay: ELISA on human EpCAM, pH range 5.0 to 7.4

T3 sequence (Q1WER1 24-265): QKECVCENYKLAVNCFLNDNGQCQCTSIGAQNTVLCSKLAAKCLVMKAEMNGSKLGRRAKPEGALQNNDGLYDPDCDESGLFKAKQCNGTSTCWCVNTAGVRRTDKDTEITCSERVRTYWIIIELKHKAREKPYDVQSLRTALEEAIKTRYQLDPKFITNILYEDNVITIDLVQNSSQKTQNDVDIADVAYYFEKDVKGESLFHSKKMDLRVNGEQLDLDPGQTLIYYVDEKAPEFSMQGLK
T4 sequence (Q1WER1 24-314): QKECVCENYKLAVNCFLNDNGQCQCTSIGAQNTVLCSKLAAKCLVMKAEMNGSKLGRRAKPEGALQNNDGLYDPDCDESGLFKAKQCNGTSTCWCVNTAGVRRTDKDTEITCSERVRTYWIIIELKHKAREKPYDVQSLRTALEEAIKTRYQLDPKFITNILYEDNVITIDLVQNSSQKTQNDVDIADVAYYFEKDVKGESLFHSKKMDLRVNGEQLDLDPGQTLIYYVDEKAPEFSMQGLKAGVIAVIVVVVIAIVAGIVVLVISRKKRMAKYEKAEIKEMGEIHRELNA

| Binder | EC50 [1] [µg/mL] | EC50 [2] [µg/mL] | EC50 [3] [µg/mL] | EC50 [4] [µg/mL] | pH inflection point [5] [pH] | pH inflection point [6] [pH] | EC50 [7] [µg/mL] | EC50 [8] [µg/mL] | EC50 [9] [µg/mL] | EC50 [10] [µg/mL] | EC50 [11] [µg/mL] | EC50 [12] [µg/mL] | binding result [14] | IC50 for the in vitro killing of Colo205 cells, pH6.0 [13] [ng/mL] | IC50 for the in vitro killing of Colo205 cells, pH7.4 [13] [ng/mL] | ratio (pH7.4/pH6.0) of the IC50 for the in vitro killing of Colo205 cells [13] |
| --- | --- | --- | --- | --- | --- | --- | --- | --- | --- | --- | --- | --- | --- | --- | --- | --- |
| BAP-105.4-03-02 (antibody, V domains shown, Humanized) VH: EVQLVQSGAEVKKPGESLRISCKGSGYTFTSYWMHWIRQSPSRGLEWLGYIRPSTGYTEYNQKFKDRVTISADKSISTAYLQWSSLKASDTAMYYCGRGDNWVGFANWGQGTLVTVSS VL: EIVMTQSPATLSVSPGERATLSCSASSSISYMHWYQQKPGKAPKLLIYSTSNLASGIPPRFSGSGYGTDFTLTINNIESEDAAYYFCHQWSTYETFGQGTKVEIK | 0.084 | 0.105 | 0.0191 | 0.0487 | 6.35 | 6.82 | 1.42 | 4.46 | 0.118 | 0.159 | 0.497 | 0.67 | – | – | – | – |
| BAP-105-06-01 conjugated to MMAE (antibody, V domains shown, antibody conjugated to MMAE; chain and residues of attachment not stated) VH: EVQLVQSGAEVKKPGATVKISCKVSGYTFTSYWMHWIRQPPGKGLEWIGYIRPSTGYTEYNQKFKDRFTISRDNSKNTLYLQMNSLRAEDTAVYYCGRGDNWVGFANWGQGTLVTVSS VL: EIVLTQSPDFQSVTPKEKVTITCSASSSISYMHWYQQKPGKAPKLLIYSTSKLASGVPDRFSGSGSGTDFTLKISRVEAEDVGVYYCHQWSTYETFGQGTKVEIK | – | – | – | – | – | – | – | – | – | – | – | – | – | 101 | 550 | 5.47 |
| BAP-105.4-02-01 (antibody, V domains shown, Humanized) VH: EVQLVQSGAEVKKPGATVKISCKVSGYTFTSYWMHWVRQAPGQGLEWMGYIRPSTGYTEYNQKFKDRFTISRDNSKNTLYLQMNSLRAEDTAVYYCGRGDNWVGFANWGQGTLVTVSS VL: EIVMTQSPATLSVSPGERATLSCSASSSISYMHWYQQKPGKAPKLLIYSTSNLASGVPSRFSGSGSGTEFTLTISSLQPDDFATYYCHQWSTYETFGQGTKVEIK | 0.674 | 0.0359 | 0.0154 | 114 | 6.17 | 6.6 | 2.42 | 14.1 | 0.215 | 0.238 | 0.321 | 0.652 | – | – | – | – |
| BAP-105.4-01-02 (antibody, V domains shown, Humanized) VH: EVQLVQSGAEVKKPGESLRISCKGSGYTFTSYWMHWIRQSPSRGLEWLGYIRPSTGYTEYNQKFKDRVTISADKSISTAYLQWSSLKASDTAMYYCGRGDNWVGFANWGQGTLVTVSS VL: EIVLTQSPDFQSVTPKEKVTITCSASSSISYMHWYQQKPGKAPKLLIYSTSNLASGVPDRFSGSGSGTDFTLKISRVEAEDVGVYYCHQWSTYETFGQGTKVEIK | 0.194 | 0.208 | 0.0147 | 0.066 | 6.27 | 6.87 | 1.26 | 6.36 | 0.116 | 0.174 | 0.273 | 0.397 | – | – | – | – |
| BAP-105-06-02 conjugated to MMAE (antibody, V domains shown, antibody conjugated to MMAE; chain and residues of attachment not stated) VH: EVQLVQSGAEVKKPGATVKISCKVSGYTFTSYWMHWIRQPPGKGLEWIGYIRPSTGYTEYNQKFKDRFTISRDNSKNTLYLQMNSLRAEDTAVYYCGRGDNWVGFANWGQGTLVTVSS VL: EIVLTQSPDFQSVTPKEKVTITCSASSSISYMHWYQQKPGKAPKLLIYSTSSLASGVPDRFSGSGSGTDFTLKISRVEAEDVGVYYCHQWSTYETFGQGTKVEIK | – | – | – | – | – | – | – | – | – | – | – | – | – | 146 | 708 | 4.86 |

Now from value to binder, other results behind:

| EC50 [1] [µg/mL] | EC50 [2] [µg/mL] | EC50 [3] [µg/mL] | EC50 [4] [µg/mL] | pH inflection point [5] [pH] | pH inflection point [6] [pH] | EC50 [7] [µg/mL] | EC50 [8] [µg/mL] | EC50 [9] [µg/mL] | EC50 [10] [µg/mL] | EC50 [11] [µg/mL] | EC50 [12] [µg/mL] | binding result [14] | Binder | IC50 for the in vitro killing of Colo205 cells, pH6.0 [13] [ng/mL] | IC50 for the in vitro killing of Colo205 cells, pH7.4 [13] [ng/mL] | ratio (pH7.4/pH6.0) of the IC50 for the in vitro killing of Colo205 cells [13] |
| --- | --- | --- | --- | --- | --- | --- | --- | --- | --- | --- | --- | --- | --- | --- | --- | --- |
| – | – | – | – | – | – | – | – | – | – | – | – | binds | BAP-105-01-02 (antibody, V domains shown) VH: QVQLQQSGAELAKPGASVKVSCKASGYTFTSYWMHWVKQRPGQGLEWIGDIRPSTGYTEYNQKFKDKATLTADKSSSTAYMQLSSLTFEDSAVYYCGRGDNWVGFANWGQGTLVTVSA VL: QIVLTQSPAIMSASLGEEIALTCSASSSISYMHWYQQKSGTSPKLLIYSTSNLASGVPSRFSGSGSGTFYSLTISSVEAEDAADYFCHQWSTYHTFGSGTKLEIK | – | – | – |
| – | – | – | – | – | – | – | – | – | – | – | – | binds | BAP-105-01-04 (antibody, V domains shown) VH: QVQLQQSGAELAKPGASVKVSCKASGYTFTSYWMHWVKQRPGQGLEWIGYIRPSTGYTEYNQKFKDKATLTADKSSSTAYMQLSSLTFEDSAVYYCGRGDNWVGFANWGQGTLVTVSA VL: QIVLTQSPAIMSASLGEEIALTCSASSSISYMHWYQQKSGTSPKLLIYSTSNLHSGVPSRFSGSGSGTFYSLTISSVEAEDAADYFCHQWSTYHTFGSGTKLEIK | – | – | – |
| – | – | – | – | – | – | – | – | – | – | – | – | binds | BAP-105-01-05 (antibody, V domains shown) VH: QVQLQQSGAELAKPGASVKVSCKASGYTFTSYWMHWVKQRPGQGLEWIGYIRPSTGYTEYNQKFKDKATLTADKSSSTAYMQLSSLTFEDSAVYYCGRGDNWVGFANWGQGTLVTVSA VL: QIVLTQSPAIMSASLGEEIALTCSASSSISYMHWYQQKSGTSPKLLIYSTSNLASGVPSRFSGSGSGTFYSLTISSVEAEDAADYFCEQWSTYHTFGSGTKLEIK | – | – | – |
